Results: paper PMC10716581, “Fanconi anemia-associated mutation in RAD51 compromises the coordinated action of DNA-binding and ATPase activities”

Molecular target: RAD51-Q242R (human, UniProt Q06609 1-339, Q242R)
Assay: EMSA; 2 mM ATP, 10 mM Mg2+; 20 mM Hepes-NaOH pH 7.5, 0.1 mg/ml BSA, 1 mM DTT, 10 mM MgCl2, 150 mM KCl, 2 mM ATP or AMP-PNP or no nucleotide, 2.7 uM (nt) DNA, 37 C 10 min; 8% native PAGE in 1x TBE
Details: protein: recombinant; tags: N-terminal His-tag removed with thrombin; chain copies: 8; label: 5'-Cy5 on strand 1; blunt

RAD51-Q242R, sequence (Q06609 whole entry Q242R): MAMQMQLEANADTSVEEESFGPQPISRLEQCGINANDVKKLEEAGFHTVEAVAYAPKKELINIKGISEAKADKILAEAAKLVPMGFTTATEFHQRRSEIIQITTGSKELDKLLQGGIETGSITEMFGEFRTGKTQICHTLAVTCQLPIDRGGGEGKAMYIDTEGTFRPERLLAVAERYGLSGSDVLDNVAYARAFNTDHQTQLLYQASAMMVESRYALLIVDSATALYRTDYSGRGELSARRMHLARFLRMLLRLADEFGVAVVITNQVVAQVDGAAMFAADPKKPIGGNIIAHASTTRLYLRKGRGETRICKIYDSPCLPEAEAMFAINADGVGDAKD

B1: Cy5-OL4/OL5 40-mer (dsDNA)
DNA 1: TAATACAAAATAAGTAAATGAATAAACAGAGAAAATAAAG
DNA 2: CTTTATTTTCTCTGTTTATTCATTTACTTATTTTGTATTA
binding result: binds
